In US11932673B2, “Sodium channel inhibitors” (priority 2017, dated 2024):

Assays:
[1] = tested on: in vitro rat BBB model system; assay type: in vitro ADME; settings: Fab format, oligoclonal mixes of 3 Fabs at final 2 μM, controls 1 μM, blood side to brain side, 37° C.
Experimental: In order to assess the ability of these KnotBodies to cross the BBB, a ready to use in vitro rat BBB model system (Pharmacocell, Cat. No. RBT-24H) was used. In this model system rat brain endothelial cells were co-cultured with pericytes and astrocytes to mimic the in vivo BBB anatomy (Nakagawa, S. et al. (2009) Neurochem. Int. 54, 253-263). The in vitro rat BBB kit was cultured according to manufacturer's instructions and transendothelial electrical resistance (TEER) was measured prior to testing of KnotBodies to verify the integrity of the barrier. […] 21 KnotBody Fabs were tested for their ability to cross the in vitro BBB model system. […] The parent KnotBody KB_A12 was used as a negative control. Both positive and negative controls were expressed and purified in the Fab format as described above. […] The concentration of transcytosed Fabs in the lower chamber (referred as brain side) was determined using a sandwich ELISA. In this ELISA, Fabs were captured using an anti-CH1 antibody (provided by Hybridoma Reagent Laboratories) and detected using rabbit anti-human IgG Kappa light chain antibody (Abcam, Cat. No. ab195576) or anti-human IgG Lambda light chain antibody (Abcam, Cat. No. ab124719) followed by europium conjugated anti-rabbit antibody (Perkin Elmer, Cat. No. AD0105). […]

trypsin = experiment: TRF binding assay of purified KnotBody Fabs on biotinylated trypsin

B1: KB_A12: EETI-II VL CDR2 KnotBody, D1A12 VH, VL SEQ ID NO: 105/373; parental/isotype control (antibody, V domains shown)
VH: EVQLVESGGGLVRPGGSLRLSCAASGFTFSSYAMSWVRQAPGKGLEWVSAISGSGGSTYYADSVKGRFTISRDNTKNSLYLQMTSLRADDTAFYYCVKDFGPGYGTGWFDYWGPGTLVTVSS
VL: QSVLTQPPSVSEAPRQRVTITCSGSSSNIGNNAVNWYQQLPGKAPKLLIYAAGRCPRILMRCKQDSDCLAGCVCGPNGFCGANSGVSDRFSAAKSGTSASLAINGLRSEDEADYYCAAWDDSLNGYVFGTGTKLTVLG
% transcytosis after 6 h [1]: 0.1%
TRF signal for 0.6 ug/mL Fab (trypsin; KnotBody Fab 0.6 ug/mL, background (no Fab) 431): 102132
TRF signal for 2.4 ug/mL Fab (trypsin; KnotBody Fab 2.4 ug/mL, background (no Fab) 406): 221989
TRF signal for 10 ug/mL Fab (trypsin; KnotBody Fab 10 ug/mL, background (no Fab) 420): 252832
